Results: patent US10464978B2, “Peptides and combination of peptides for use in immunotherapy against ovarian cancer and other cancers” (immatics biotechnologies GmbH, priority 2015, dated 2019)

Target: HLA-A*02:01 (Homo sapiens, UniProt P04439, D140Y/D185E/D98H/E176V/E277Q/G131W/G231S/I119V/I121R/I166T/I218V/L300P/L318F/N151K/N90K/P208A/P217A/Q86G/Q94H/R138H/R169H/T345S)
Assay: MHC binding assay: UV-ligand exchange with beta2m ELISA (peptide exchange yield)
Settings: binding to HLA-A*02:01
Source text: Candidate peptides for T cell based therapies according to the present invention were further tested for their MHC binding capacity (affinity). The individual peptide-MHC complexes were produced by UV-ligand exchange, where a UV-sensitive peptide is cleaved upon UV-irradiation, and exchanged with the peptide of interest as analyzed. Only peptide candidates that can effectively bind and stabilize the peptide-receptive MHC molecules prevent dissociation of the MHC complexes. To determine the yield of the exchange reaction, an ELISA was performed based on the detection of the light chain ([…]) of stabilized MHC complexes. The assay was performed as generally described in Rodenko et al. (Rodenko et al., 2006).
96 well MAXISorp plates (NUNC) were coated over night with 2 ug/ml streptavidin in PBS at room temperature, washed 4× and blocked for 1 h at 37° C. in 2% BSA containing blocking buffer. […] Peptide-MHC monomers of the UV-exchange reaction were diluted 100 fold in blocking buffer. Samples were incubated for 1h at 37° C., washed four times, incubated with 2 ug/ml HRP conjugated anti-β2m for 1h at 37° C., washed again and detected with TMB solution that is stopped with […]. Absorption was measured at 450 nm. Candidate peptides that show a high exchange yield (preferably higher than 50%, most preferred higher than 75%) are generally preferred for a generation and production of antibodies or fragments thereof, and/or T cell receptors or fragments thereof, as they show sufficient avidity to the MHC molecules and prevent dissociation of the MHC complexes.

Peptide exchange (MHC class I binding score, peptide exchange yield), “+++” (≥50 = +++):
122 (FLLAEDDIYL; listed as Homo sapiens) [compound 122]
152 (ILFEDIFDV; listed as Homo sapiens) [compound 152]
315 (YLQDVVEQA; listed as Homo sapiens) [compound 315]
243 (LLLNELPSV; listed as Homo sapiens) [compound 243]
469 (YLASDEITTV; listed as Homo sapiens) [compound 469]
241 (SLVEVNPAYSV; listed as Homo sapiens) [compound 241]
183 (FGLDLVTEL; listed as Homo sapiens) [compound 183]
450 (FMIDASVHPTL; listed as Homo sapiens) [compound 450]
322 (TLMTSLPAL; listed as Homo sapiens) [compound 322]
514 (ILVDWLVQV; listed as Homo sapiens) [compound 514]
240 (ILLEQAFYL; listed as Homo sapiens) [compound 240]
578 (FLDPGGPMMKL; listed as Homo sapiens) [compound 578]
281 (ILRESTEEL; listed as Homo sapiens) [compound 281]
384 (ILFANPNIFV; listed as Homo sapiens) [compound 384]
23 (VLLDDIFAQL; listed as Homo sapiens) [compound 23]
46 (ILTEENIHL; listed as Homo sapiens) [compound 46]
214 (FLLDLDPLLL; listed as Homo sapiens) [compound 214]
296 (FMEGAIIYV; listed as Homo sapiens) [compound 296]
325 (FIMPATVADATAV; listed as Homo sapiens) [compound 325]
39 (SVAPNLPAV; listed as Homo sapiens) [compound 39]
302 (ALLQEGEVYSA; listed as Homo sapiens) [compound 302]
255 (VLASYNLTV; listed as Homo sapiens) [compound 255]
386 (ILFRYPLTI; listed as Homo sapiens) [compound 386]
427 (ALLPLSPYL; listed as Homo sapiens) [compound 427]
351 (SLIPNLRNV; listed as Homo sapiens) [compound 351]
147 (SLLEAVSFL; listed as Homo sapiens) [compound 147]
593 (GLPRFGIEMV; listed as Homo sapiens) [compound 593]
17 (GLLPGDRLVSV; listed as Homo sapiens) [compound 17]
569 (KLVDRTWTL; listed as Homo sapiens) [compound 569]
433 (AMLNEPWAV; listed as Homo sapiens) [compound 433]
475 (LLLNEEALAQI; listed as Homo sapiens) [compound 475]
473 (AMATESILHFA; listed as Homo sapiens) [compound 473]

Peptide exchange (MHC class I binding score, peptide exchange yield), “++++” (≥75% = ++++):
395 (ALALGGIAVV; listed as Homo sapiens) [compound 395]
576 (ILLNNSGQIKL; listed as Homo sapiens) [compound 576]
329 (FLVTLNNVEV; listed as Homo sapiens) [compound 329]
321 (GLFEDVTQPGILL; listed as Homo sapiens) [compound 321]

Peptide exchange (MHC class I binding score, peptide exchange yield), “++” (≥20% = ++):
229 (RLPGPLGTV; listed as Homo sapiens) [compound 229]
217 (ALIHPVSTV; listed as Homo sapiens) [compound 217]
232 (ALLEAQDVELYL; listed as Homo sapiens) [compound 232]
218 (SALEELVNV; listed as Homo sapiens) [compound 218]
353 (YLFEMDSSL; listed as Homo sapiens) [compound 353]
220 (LLQKFVPEI; listed as Homo sapiens) [compound 220]
381 (FIDEAYVEV; listed as Homo sapiens) [compound 381]
455 (SLLKEPQKVQL; listed as Homo sapiens) [compound 455]
402 (VLFSGALLGL; listed as Homo sapiens) [compound 402]
319 (SLEPQIQPV; listed as Homo sapiens) [compound 319]
